Assay results published in the RNAGym collection of RNA variant scans (doi:10.1073/pnas.2313332121).
Variants at the floor of the assay were thinned out.

B1: TPR 5TU (parent)
chain: GGAUCUUCUCGAUCUAACAAAAAAGACAAAUCUGCCACAAAGCUUGAGAGCAUCUUCGGAUGCAGAGGCGGCAGCCUUCGGUGGCGCGAUAGCGCCAACGUUCUCAACUAUGACACGCAAAACGCGUGCUCCGUUGAAUGGAGUUUAUCAUG

Variants of: B1
Assay: polymerase ribozyme fitness, log enrichment relative to wild type (log ratio); higher = more active; in vitro selection for triplet polymerase activity
Outline: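 Genotype fitness is the logarithm of its enrichment divided by wild-type enrichment, using inverse-variance-weighted averages of replicates. That logarithm is base 2. Enrichment was measured by Illumina sequencing of input and output libraries from one triplicate in vitro selection round, with frozen incubation at −7 °C, on PCR-built, transcribed mutant libraries of each subunit of a heterodimeric triplet polymerase ribozyme, retaining genotypes with ≥10 input reads and ≥1 read per output.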

Variant	polymerase ribozyme fitness (log ratio)
GGAUCUUCUCGAUCUAACAGAAAAGACAAAUCUGCCAUAAAGCUUGAGAGCAUCUUCGGAUGCAGAGGCGGCAGCCUUCGGUGGCGCCAUAGCGCAAACGUUCUCAACUAUGACACGCAAAACGCGUGCUCCGUUGAAUGGAGUUUAUCAUG [A20G C38U G88C C96A]	≤ -4.2
GGAUCUUCUCGAUCUAACACAAAAGACAAAUCUGCCACAAAGCUUGAGAGCAUCAUCGGAUGCAGAGGCGACAGCCUUCGGUGGCGCGAUAGCGCUAACGUUCUCAACUAUGACACGCAAAACGCGUGCUCCGUUGAAUGGAGUUUAUCAUG [A20C U55A G71A C96U]	-3.43
GGAUCUUCUCGAUCUAACACAAAAGACAAAUCUGCCACAAAGCAUGAGCGCAUCUUCGGAUGCAGAGGCGGCAGCCUUCGGUGGCGCGAUAGCGCGAACGUUAUCAACUAUGACACGCAAAACGCGUGCUCCGUUGAAUGCAGUUUAUCAUG [A20C U44A A49C C96G C103A G141C]	≤ -4.2
GGAUCUUCUCGAUCUAACACAAAAGACAAAUCUGCCACAAAGCUUGAGAGCAUCUUCGGAUGCAGAGGCGGCAGCCUUCGGUGGCGCAAUAGCGCCAACGUUCUCAACUAUGACACGCAAAACGCGUGCUCCGUUGAAUGGAGUUUAUCAUG [A20C G88A]	-3.56
GGAUCUUCUCGAUCUAACACAAAAGACAAAUCUGCCACAAAGCUUGAGAGCAUCUUCGGAUGCAGAGGCGGCAGCCUUCGGUCGCGCGAUAGCGCCAACGUUCUCAACUAUGACACGCAAAACGCGUGCUCCGUUGAAUGGAGUUUAUCAUG [A20C G83C]	-1.3
GGAUCUUCUCGAUCUAACAGAAAAGACAAAUCUGCCACAAAGCUUGAGAGCAUUUUCGGAUGCAGAGGCGGCAGCCUUCGGUGGCGCGAUAGCGCCAACGUUCUCAUCUAUGACACGCAGAACGCGUGCUCCGUUGAAUGGAGUUUAUCAUG [A20G C54U A107U A120G]	-3.56
GGAUCUUCUCGAUCUAACAGAAAAGACAAAUCUGCCACAACGCUUGAGAGCAUGUUCGGAUGCAGAGGCGGCAGCCUUCGGUUGCGGGAUAGCGCCACCGUUCUCAACUAUGACAGGCAAAACGCGUGCUCUGUUGAAUGGAGUUUAUCAUG [A20G A41C C54G G83U C87G A98C C116G C132U]	≤ -4.2
GGAUCUUCUCGAUCUAACACAAAAGACAAAUCUGCCACAAAGCUUGAGAGCAUCUUCGGAUGCAGAGGCGGCAGCCUUCGGUGGCGCGAUAUCGCCAACGUUCUCAACUAUGACACGCAAAACGAGUGCUCCGUUGAAUGGAGUUUAUCAUG [A20C G92U C125A]	-0.863
GGAUCUUCUCGAUCUAACACAAAAGACAAAUCUGCCACAAAGCUUGAGAGCAUCUUCGGAUGCAGAGGCGGCAGCCUUCAGAGGCGCGAUAGUGCCACCGUUCUCAACUAUGACACGCAAAACGCGUGCUCCGUUGAAUGGAGUUUAUCAUG [A20C G80A U82A C93U A98C]	-2.56
GGAUCUUCUCGAUCUAACAGAAAAGACAAAUCUGCCACAAAGCUUGAGAGCAUCUUCGGAUGCAGAGGCGACAGCCUUCGGUGGCGCGAUAGCGCAAACGUUCUCAACUAUGACACGCAAAACGCGUGCUCCGUUGAAUGGAGUUUAUCAUG [A20G G71A C96A]	≤ -4.2
GGAUCUUCUCGAUCUAACAGAAAUGACAAAUCUGUCACAAACCUUGAGAGCAUCUUCGGAUGCAGAGGCGGCAGCCUUAGGUGGGGCUAUAGCGCCAACGUUCUCAACUAUGACACGCAAAACGCGUGCUCCGUUGAAUGGAGUUUGUCAUA [A20G A24U C35U G42C C79A C85G G88U A147G G152A]	≤ -4.2
GGAUCUUCUCGAUCUAACAGAAAAGACAAAUCUGCCACAAAGCUUGAGAGCAUCUUCGGAUGCAGAGGCGGCAGCCUUCGGUGGCGCGAUAGUGCCAAAGUUCUCAACUAUGACACGCAAAACUCGUGCUCCGUUGAAUGGAGUUUAUCAUG [A20G C93U C99A G124U]	-2.78
GGAUCUUCUCGAUCUAACACAAAAGACAAAUCUGCCACAAAGCUUGAGAGCACCUUCGAAUGCAGAGGCGGCAGCCUUCGGUGGCGCGAUAGCGCCAACGUUCUCAACUAUGACACGCAAAACGCGUGCUCCGUUCAAUGGAGUUUAUCAUG [A20C U53C G59A G136C]	-3.81
GGAUCUUCUCGAUCUAACAGAAAAGACAAAUCUGCCACAAAGCUUGAGAGCAUCUUCGGAUGCAGAGGCGGCAGCCUUCGGUGGAGCGAUAGCGCCAACGUUCCGAACUAUGACACGCAAAACGCGUGCUCCGUUGAAUGGAGUUUAUCAUG [A20G C85A U104C C105G]	≤ -4.2
GGAUCUUCUCGAUCUAACACAAAAGACAAAUCUGCCACAAAGCUUGAGAGCAUCUUCGGAUGCAGAGGCGGCAGCCUUCGUUGGCGCGAUAGCUCCAACGUUCUCAACUAUGACACGCAUAACGCGUGCUCCGUUGAAUGGAGUUUAUCACG [A20C G81U G94U A120U U151C]	-4.13
GGAUCUUCUCGAUCUAACAGAAAAGACAAAUCUGCCACAAAGCUUGAAAGCAUCUUCGGAUGCAGAGGAGGCAGCCUUCGGUGGCGCGAUAGCGCCAUCGUUCUCAACUAUGACACGCAAAACGCGUGCUCCGUUGAAUGGGGUUUAUCAUG [A20G G48A C69A A98U A142G]	-3.3
GGAUCUUCUCGAUCUAACACAAAAGACAAAUCUGCCACAAAGCUUGAGAGCAACUGCGGAUGCAGAGGCGGCAGCCUUCGGUGGAGCGAUAGCGCCAACGUUCUCAACUAUGACACGCCAAACGCGUGCUCCGUUGAAUGGAGUUUAUCAUG [A20C U53A U56G C85A A119C]	-4
GGAUCUUCUCGAUCUAACAGAAAAGACAAAUCUGCCACAAAGCUUGAGAGCAUCUUCGGAUGCAGAGGCGGCAGCCUUCGGUGGCGCGAUAGCGCCAACGUUCUCAACUAUGACACGCAAAACGCGUGCUCCGUUGAAUGGAGUUUAUCAUG [A20G]	-0.287
GGAUCUUCUCGAUCUAACAGAAAGGACAAAUCUGCCACGCAGCUUGAGAGCAUCUUCGGAUGCAGAGGCGGCAGCAUUCGGUGGCGCGAUAGCGCCAACGUUCUCAACUAUGACACGCAAAACGCGUGCUCCGUUUAAUGAAGUUUAUCAUG [A20G A24G A39G A40C C76A G136U G141A]	≤ -4.2

Variant	polymerase ribozyme fitness (log ratio)
GGAUCUUCUCGAUCUAACACAAAAGACAAAUCUGCCACAAAGCUUGAGAGCAUCAUCGGAUGCAGAGGCGGCAGCCUUCGGUGGCGCGAUAGCGCCAACGUUCUCAACUAUGACACGCAAAACGCGUGCUCCGUUGAAUGGAGUUUAUCAUG [A20C U55A]	-0.798
GGAUCUUCUCGAUCUAACAGAAAAGACAAAUCUGCCACAAAGCUUGAGAGCAUCUUCGGAUGCAGAGGCGGCAGCCUUCGGUGGCGUGAUAGCGCCAACGUUCUCAACUAUGACACGCAAAACGCGUGCUCCGUUGAAUGGAGUUUAUCAUG [A20G C87U]	-1.06
GGAUCUUCUCGAUCUAACAGAAAAGCCAAAUCUGCCACAAAGCUUGAGCGCAUCUUCGGAUGCAGAGCCGGGAGCCUUCGUUGGAGCGAUAGGGCCAACGUUCUCAACUAUGACACGCAAAACGCCUGCUCCGUUGAAUGGAGUUUAUCAUG [A20G A26C A49C G68C C72G G81U C85A C93G G126C]	≤ -4.2
GGAUCUUCUCGAUCUAACAGAAAAGACAAAUCUGCCACAAAGCUUGAGAGCAUCUUCGGAUGCAGAGGCGGCAGCCUUCGGUGGCGCGAUUGCGCCAACGUUCUCAACUAUGACACGCAAAACUCGUGCUCCGUUGAAUGGAGUUUAUCAUG [A20G A91U G124U]	≤ -4.2
GGAUCUUCUCGAUCUAACAGAAAAGACAAAUCUGCCACAAAGCUUGAGAGCAUCUUCGGAUGCAGAUGCGGCAGCCUUCGGUGGCGCGAUAGCGCCAACGUUCUCAACUAUGACACGCAAAACGCGUGCUCCGUUGAAUGGAGUUUAUCAUG [A20G G67U]	-2.82
GGAUCUUCUCGAUCUAACAGAAAAGACAAAUCUGCCACAAAGCUUGAGAGCAUCUUCGGAUGUAGAGGCGGCAGCCUUCGGUGGCGCGAUAGCGCAAACGUUCUCAACUAUGACACGCAAAACGCGUGCUCCGUUGAAUGGACUUUAUCAUG [A20G C63U C96A G143C]	-3.2
GGAUCUUCUCGAUCUAACAGAACAGACAAAUCUGCCACAAAGCUUGAGAGCAACUUCGGAUGCAGAGGCGGCAGCCUUCGGUGGCGCGAUAAAGUCAACGUUCUCAACUAUGACACGCAAAACGCGUGCUCCGUUGAAUGAAGUUUAUCAUG [A20G A23C U53A G92A C93A C95U G141A]	≤ -4.2
GGAUCUUCUCGAUCUAACAGAAAAGACAAAUCUGCCACAAAGCUUGAGAGCAUCUUCGGAUGCAGAGGCGGCAGCCUUCGCUGGCGCGAUAGUGCCAACGUUAUCAACUAUGACACGCAAAACGCGUGCUCCGUUGAAUGGAGUUUAUCAUA [A20G G81C C93U C103A G152A]	-3.74
GGAUCUUCUCGAUCUAACAGAAAGGACAAAUCUGCCACAAAGCUUGAGAGCAACUUCGGAUGCAGAGGCGGCAGCCUUCGGUGGCGCGAUGGCGCCUACGUUCUCAACCAUGACACGCAAAACGCGUGCACCGUUGAAUGACGUUUAUCAUG [A20G A24G U53A A91G A97U U109C U130A G141A A142C]	≤ -4.2
GGAUCUUCUCGAUCUAACAGAAAAGACAAAUCUGCUACAAAGCUUGAGAGCAUCUUCGGAUGCAGAGGCGGCAGCCUUCGGUGGGGCGAUAGCGCCAACGUUCUCAACUAUGACACGCAAAACGCGUGCUCCGUUGAAUGGAGUUUAUCAUG [A20G C36U C85G]	-4.17
GGAUCUUCUCGAUCUAACACAAAAGACAAAUCUGCCACAAAGCUUGAGAGCAUCUUCGGAUGCAGAGGCGGCAGCCUUCGGUGGCCUAAUAGCGGCAACGUUCUCAACUAUGACACGCAAAACGCGUGCUCCGUUGAAUGGAGUUUAUCAUG [A20C G86C C87U G88A C95G]	≤ -4.2
GGAUCUUCUCGAUCUAACAGAAAAGACAAAUCUGCCACAAAGCUUGAGAGCAUCUUCGGAUGCAGAGGCGGCAGCCUUCGGUGGCGCGAUGGCGCCAACGUUCUCAACUAUGACACGCAAAACGCGUGCUCCGUUGAAUGGAGUUUAUCAUG [A20G A91G]	-2.54
GGAUCUUCUCGAUCUAACAGAAAAGACAAAUCUGCCACAAAGUUUGAGAGCAUCAUCGGAUGCAGAGGCGGCAGCCUUCGGUGGUGCGAUAGCGCGAUCGUUCUCAGCUAUGACACGCAAAACGCGUGCUCCGUUGAAUGGAGUUUAUCAUG [A20G C43U U55A C85U C96G A98U A107G]	≤ -4.2
GGAUCUUCUCGAUCUAACAGAAAUGACAAAUCUGCCACAAAGCUUGAGAGCAUCUUCGGAUGCAGAGGCGGCAGCCUUCGGUGGCGUGAUAGCGCCAACGUUCUCAGCUAUGACACGCAAAACGCGUGCUCCGUUGAAUGGAGUUUAUCAUG [A20G A24U C87U A107G]	≤ -4.2
GGAUCUUCUCGAUCUAACACAAAAGACAAAUCUGCCACAAAGCUUGAGAGCAUCUUCGGAUGCAGAGGCGGCAGCCUUCGGUGGCGCGAUAGCGCCAACGUUCUCAACUAUGACACGCAAAACGCGUGCUCCGUUCAAUGGAGUUUAUCAUG [A20C G136C]	-4.19
GGAUCUUCUCGAUCUAACAGAAAAGGCAAAUCUGCCACAAAGCUUGAGAGCAUCUUCGGAUGCAAAGGAGGCAGCCUUCGGUGGCGCGAUAGCGCCAACGUUCUAAACUAUGACACGCAAAACGCGUGCUCCGUUGAAUGGAGUUUAUCAUG [A20G A26G G65A C69A C105A]	≤ -4.2
GGAUCUUCUCGAUCUAACACAAAAGACAAAUCUGCCACAAAGCCUGAGAGCAUCGUCGGAUGCAGAGGAGGCAGCCUUCGGUGGCGCGAUAGCGCCAACGUUCUCAACUAUGACACGCAAAACGCGUGCUCCGUUGAAUGGAGUUUAUCAUG [A20C U44C U55G C69A]	≤ -4.2
GGAUCUUCUCGAUCUAACAGAAAAGACAAAUCUGCCACAAAGCUUGAGAGCAUAUUCGGAUGCAGAGACGGCAGCCUUCGGUGGCGUGAUAGCGCCAACGUUCUCAACUAUGACACGCAAAACGCGUGCUCCGUUGAAUGGAGUUUAUCAUG [A20G C54A G68A C87U]	≤ -4.2
GGAUCUUCUCGAUCUAACAGAAAAGACAAAUUUGCCACAAAGCUUGAGAGCAUCUUCGGAUGCAGAGGCGGCAGCCUUCGGUGUCGCGAUAGGGCCAACGUUCUCAACUAUGACACGCAAAACGCGUGCUCCGUUGAAUGGAGUUUAUCAUG [A20G C32U G84U C93G]	-4.2
